Test [1] addresses 4E10-specific MPER peptide (gp41 residues 671-683) (HIV-1). The test is described as follows: ELISA, peptide coated at 2 ug/ml.
Test [2] concerns the target full MPER peptide (ELISA; gp41 residues 656-683 with lysine triplicates) (HIV-1). As to the kind of experiment: ELISA, peptide coated at 2 ug/ml.
The target of test [3] is Z13e1-specific peptide (gp41 residues 666-677) (HIV-1). The test is described as follows: ELISA, peptide coated at 2 ug/ml.
Test [4] deals with T1, Sjogren's syndrome antigen B (UniProt P05455 1-408).
T1 construct: Commercial bead antigen; also called SSB; SS-B/La
T1 sequence: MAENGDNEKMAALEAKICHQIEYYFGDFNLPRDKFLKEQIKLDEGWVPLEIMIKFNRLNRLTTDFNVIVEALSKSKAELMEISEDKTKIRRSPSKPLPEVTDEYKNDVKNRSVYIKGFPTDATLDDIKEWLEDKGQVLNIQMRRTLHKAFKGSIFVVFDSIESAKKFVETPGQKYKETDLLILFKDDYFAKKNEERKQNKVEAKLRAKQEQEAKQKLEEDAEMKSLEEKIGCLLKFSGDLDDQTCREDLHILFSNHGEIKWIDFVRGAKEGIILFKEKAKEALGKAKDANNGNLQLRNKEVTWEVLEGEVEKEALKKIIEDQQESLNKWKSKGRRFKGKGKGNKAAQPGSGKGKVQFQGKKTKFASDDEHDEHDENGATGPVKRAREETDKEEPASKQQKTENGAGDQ
The test is described as follows: Luminex AtheNA Multi-Lyte ANA bead assay.

Another test concerns the target T2, scleroderma 70 antigen (UniProt P11387 2-765).
T2 construct: Commercial bead antigen; also called Scl 70; Sc1 70
T2 sequence: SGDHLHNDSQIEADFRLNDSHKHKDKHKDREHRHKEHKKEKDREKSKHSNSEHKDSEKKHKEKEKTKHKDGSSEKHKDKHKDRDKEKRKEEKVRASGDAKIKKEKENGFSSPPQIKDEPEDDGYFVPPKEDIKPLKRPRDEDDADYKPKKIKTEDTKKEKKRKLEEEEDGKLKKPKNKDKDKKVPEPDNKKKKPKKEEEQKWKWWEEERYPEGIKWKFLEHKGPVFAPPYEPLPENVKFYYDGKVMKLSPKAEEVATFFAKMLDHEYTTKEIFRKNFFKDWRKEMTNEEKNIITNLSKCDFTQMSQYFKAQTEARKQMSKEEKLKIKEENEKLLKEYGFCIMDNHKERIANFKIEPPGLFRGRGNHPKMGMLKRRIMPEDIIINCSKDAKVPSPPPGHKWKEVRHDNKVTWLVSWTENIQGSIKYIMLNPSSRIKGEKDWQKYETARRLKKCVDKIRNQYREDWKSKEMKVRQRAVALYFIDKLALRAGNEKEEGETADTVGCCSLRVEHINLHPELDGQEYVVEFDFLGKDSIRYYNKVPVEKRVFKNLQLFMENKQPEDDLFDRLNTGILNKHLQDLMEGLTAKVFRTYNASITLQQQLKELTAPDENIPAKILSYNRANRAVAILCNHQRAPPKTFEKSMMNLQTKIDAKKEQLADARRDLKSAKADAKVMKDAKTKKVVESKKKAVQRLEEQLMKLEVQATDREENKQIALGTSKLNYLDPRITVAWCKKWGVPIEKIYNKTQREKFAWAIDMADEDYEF
As to the kind of experiment: Luminex AtheNA Multi-Lyte ANA bead assay.

In a further test the target is T3, Jo1 antigen (UniProt P12081 2-509).
T3 construct: Commercial bead antigen
T3 sequence: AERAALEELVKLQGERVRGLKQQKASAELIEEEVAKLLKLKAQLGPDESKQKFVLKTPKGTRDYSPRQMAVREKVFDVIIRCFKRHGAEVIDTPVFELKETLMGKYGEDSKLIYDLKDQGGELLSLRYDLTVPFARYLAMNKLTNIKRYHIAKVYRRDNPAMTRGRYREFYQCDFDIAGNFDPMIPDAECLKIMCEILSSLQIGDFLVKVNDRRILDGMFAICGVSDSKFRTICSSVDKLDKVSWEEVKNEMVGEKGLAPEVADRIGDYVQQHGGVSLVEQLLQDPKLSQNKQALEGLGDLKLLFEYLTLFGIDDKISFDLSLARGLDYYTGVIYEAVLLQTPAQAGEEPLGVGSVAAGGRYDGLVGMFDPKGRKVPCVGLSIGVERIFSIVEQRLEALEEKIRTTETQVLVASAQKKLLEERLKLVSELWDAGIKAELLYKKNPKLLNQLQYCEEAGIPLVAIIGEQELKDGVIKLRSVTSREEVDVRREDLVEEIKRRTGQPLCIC
The test is described as follows: Luminex AtheNA Multi-Lyte ANA bead assay.

For the next test, the target named is T4, centromere B (UniProt P07199 2-599).
T4 construct: Commercial bead antigen; also called CentrB
T4 sequence: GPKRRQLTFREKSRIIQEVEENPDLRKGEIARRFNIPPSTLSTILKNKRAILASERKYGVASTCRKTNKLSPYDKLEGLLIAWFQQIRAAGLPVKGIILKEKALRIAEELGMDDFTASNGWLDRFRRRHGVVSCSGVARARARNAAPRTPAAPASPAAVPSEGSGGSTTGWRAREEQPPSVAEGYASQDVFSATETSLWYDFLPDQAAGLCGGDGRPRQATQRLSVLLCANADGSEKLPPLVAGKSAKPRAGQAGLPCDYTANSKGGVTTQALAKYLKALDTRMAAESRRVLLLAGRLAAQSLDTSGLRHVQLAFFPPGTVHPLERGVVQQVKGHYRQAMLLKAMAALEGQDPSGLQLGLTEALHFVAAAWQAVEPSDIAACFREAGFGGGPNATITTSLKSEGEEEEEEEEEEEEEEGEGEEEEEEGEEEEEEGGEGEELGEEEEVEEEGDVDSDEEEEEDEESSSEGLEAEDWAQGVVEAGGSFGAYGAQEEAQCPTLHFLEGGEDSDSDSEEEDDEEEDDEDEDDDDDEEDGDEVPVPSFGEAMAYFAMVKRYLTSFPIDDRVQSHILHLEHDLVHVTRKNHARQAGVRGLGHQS
As to the kind of experiment: Luminex AtheNA Multi-Lyte ANA bead assay.

B1: 10E8 monoclonal antibody (full-length IgG) (antibody, V domains shown)
VH: EVQLVESGGGLVKPGGSLRLSCSASGFDFDNAWMTWVRQPPGKGLEWVGRITGPGEGWSVDYAAPVEGRFTISRLNSINFLYLEMNNLRMEDSGLYFCARTGKYYDFWSGYPPGEEYFQDWGRGTLVTVSS
VL: SYELTQETGVSVALGRTVTITCRGDSLRSHYASWYQKKPGQAPILLFYGKNNRPSGVPDRFSGSASGNRASLTISGAQAEDDAEYYCSSRDKSGSRLSVFGGGTKLTVL
notes: also called mAb 10E8; wild-type 10E8
B1: the binding result in test [1] was “binds”; in test [2] it was “binds”; in test [3] it was “no binding”; in test [4] it was “no binding (tested: 50 ug/ml (highest concentration assayed))”; in the test with scleroderma 70 antigen it was “no binding (tested: 50 ug/ml (highest concentration assayed))”; in the test with Jo1 antigen, “no binding (tested: 50 ug/ml (highest concentration assayed))”. Also, the binding result with centromere B is recorded as “no binding (tested: 50 ug/ml (highest concentration assayed))”.
